To fix the notation:
B1: Antibody F (antibody, mouse IgG2a, kappa, V domains shown)
VH: QVQLKESGPELVKPGASVKISCKASGYTFTDYYINWVKQRPGQGLEWIGWIFPGSGSTYYNEKFKGKATLTVDKSSSTAYMLLSSLTSEDSAVYFCADYGSSYRYFDVWGAGTTVTVSS
VL: DIVMTQSPAILSASPGEKVTMTCRASSSVSYMHWYQQKPGSSPKPWIYATSYLASGVPARFSGSGSGTSYSLTIGRVEAEDAATYYCQQWSSNPLTFGAGTKLELKR
notes: also called anti AQP3 antibody F; Antiboy F
B2: Antibody D (antibody, mouse IgG2a, kappa, V domains shown)
VH: EVQLQQSGAELVRPGASVTLSCKASGYTFTDYEMHWVQQTPVHGLEWIGGIDPETGGTGYNQKFKGKAILTADKSSSTAYMELRSLTSEDSAVYFCTRHGSYAMDYWGQGTSVTVSS
VL: DIVMTQSPKFMSTSVGDRVSITCKASQDVSTAVAWYQQKPGQSPKLLIYWASTRHTGVPDRFTGSGSGTDYTLTISSVQAEDLALYYCQQHYSTPPTFGGGTRLEIKR
notes: also called anti AQP3 antibody D
B3: Antibody A (antibody, mouse IgG2a, kappa, V domains shown)
VH: QVQLQQPGAELVRPGASVTLSCKASGYTFTDYEMHWVKQTPVHGLEWIGGVDPETGGTGYNQKFRGKAILTADKSSSTAYMELRSLTSEDSAVYYCARHGGSFYAMDYWGQGTSVTVSS
VL: B2 VL with R103K, I106L
notes: also called anti AQP3 antibody A
B4: Antibody B (antibody, mouse IgG2a, kappa, V domains shown)
VH: EVQLVESGGDLVKPGGSLKLSCAASGFTFSSYGMSWVRQTPDKRLEWVATISRGSIYTYYPDSVKGRFTISRDNAKNTLYLQMSSLKSEDTAMYYCARLSLYDYDGARYTMDYWGQGTSVTVSS
VL: DIVMTQSPKFMSTSVGDRVSITCKASQDVGTAVAWYQQKPGQSPKLLIYWASTRHTGVPDRFTGSGSGTDFTLTISNVQSEDLADYFCQQYSSYHTFGAGTKLELKR
notes: also called anti AQP3 antibody B
B5: Antibody K (antibody, mouse IgG2a, kappa, V domains shown)
VH: QVQLKQSGAELVRPGTSVKVSCKASGYAFTNYLIEWVKQRPGQGLEWIGVINPGSGGTNYNEKFKGKATLTADKSSSTAYMQLSSLTSEDSAVYFCARWGFYYAMDYWGQGTSVTVSS
VL: DIVMTQSPSSLSASLGERVSLTCRASQEISGYLSWLQQKPDGTIKRLIYAASTLDSGVPKRFSGSRSGSDYSLTISSLESEDFADYYCLQYASYPLTFGAGTKLEIKR
notes: also called anti AQP3 antibody K
B6: BC-A8 (Fab) (Fab, V domains shown)
VH: QTVKESGGRLVTPGAPLTLTCTVSRFSLSSYAMTWVRQAPGKGLEWIGIINNDGSSSTWYASWVKGRFTISKTSTTMDLKMTSLTTEDTATYFCARGGTSGYDIWGPGTLVTVSL
VL: AQGLTQTPSPVSAAVGGTVTINCQSSPSVYKNYLSWYQQKPGQPPKLLIYGASTLASGVPSRFKGSGSGTQFTLTISDVQCDDAATYYCAGGYRGSSDIFAFGGGTEVVVK
B7: SC-D1 (Fab) (Fab, V domains shown)
VH: B6 VH with T2S, V3L, K4E, G7R, A15G, P16S, R25G, S55V
VL: B6 VL with A1D, Q2P, G3M, L4M, D78G
B8: BC-E2 (Fab) (Fab, V domains shown)
VH: QEQLKESGGRLVTPGAPLTLTCTVSRFSLSSYAMTWVRQAPGKGLEWIGIINNDGISSTWYASWVKGRFTISKTSTTMDLKMTSLTTEDTATYFCARGGTSGYDIWGPGTLVTVSL
VL: B6 VL with Q2V, G3V, G51K
B9: BC-E1 (Fab) (Fab, V domains shown)
VH: B6 VH with T2S, T12A, A15T, T22A, R25G, S55R, L84P
VL: B6 VL with L4M, Q71R
B10: BC-A3 (Fab) (Fab, V domains shown)
VH: B6 VH with S55V
VL: B6 VL with G3V, S9A, P10S, G16R, P41S
B11: SC-H10 (Fab) (Fab, V domains shown)
VH: B6 VH with T2S, V3L, K4E, S55I
VL: B6 VL with K64S
B12: BC-E11 (Fab) (Fab, V domains shown)
VH: B6 VH with T2S, T12A, A15T, T22A, R25G, S55R, L84P
VL: B6 VL with L4M, Q71R
B13: BC-E3 (Fab) (Fab, V domains shown)
VH: B6 VH with T2S, T12A, A15T, T22A, R25G, S55R, L84P
VL: B6 VL with L4M, Q71R
B14: BC-C8 (Fab) (Fab, V domains shown)
VH: B6 VH with T2S, V3L, K4E, A15G, P16S, S55I, L110V
VL: B6 VL with Q2L, G3V
B15: BC-B4 (Fab) (Fab, V domains shown)
VH: B6 VH with T2S, K4E, A15G, P16S, S55I, L110V
VL: B6 VL with Q2L, G3V, P27Q, S97G
B16: BC-A9 (Fab) (Fab, V domains shown)
VH: B6 VH with T2S, K4E, A15G, P16S, S55I, L110V
VL: B6 VL with S9A, P10S, P41S, V59A
B17: SC-B2 (Fab) (Fab, V domains shown)
VH: B8 VH with K5M, G8R, A16G, P17S, S31N
VL: B6 VL with L4P, S97G
B18: BC-E4 (Fab) (Fab, V domains shown)
VH: B6 VH with T2S, T12A, A15T, T22A, R25G, S55R, L84P
VL: B6 VL with L4M, Q71R
B19: SC-C7 (Fab) (Fab, V domains shown)
VH: B6 VH with S30G, G54I, S56G, L115S
VL: B6 VL with A1D, Q2V, G3V, L4M
B20: BC-F2 (Fab) (Fab, V domains shown)
VH: B6 VH with T2S, T12A, A15T, T22A, R25G, S55R, L84P
VL: B6 VL with L4M, Q71R
B21: SC-D10 (Fab) (Fab, V domains shown)
VH: B6 VH with T2S, A15G, P16S, S55V
VL: B6 VL with Q2L, G3V, L4M, I21T, G51K, K64S
B22: BC-G6 (Fab) (Fab, V domains shown)
VH: B6 VH with T2S, K4E, A15G, P16S, V23A, R25G, S30G, S55I
VL: B6 VL with Q2L, G3V, L4M
B23: SC-F6 (Fab) (Fab, V domains shown)
VH: B6 VH with T2S, S55I
VL: B6 VL with L4M, S9A, P10S, P41S
B24: BC-H4 (Fab) (Fab, V domains shown)
VH: B6 VH with T2Q, V3L, S55V, L115S
VL: B6 VL with Q2L, G3V, S97G
B25: BC-F7 (Fab) (Fab, V domains shown)
VH: B6 VH with T2S, K4E, A15G, P16S, S55I, L110V
VL: B6 VL with Q2L, G3V, P27Q, S97G
B26: SC-G8 (Fab) (Fab, V domains shown)
VH: B6 VH with T2S, K4E, T12M, A15G, P16S, V23A, R25G, S56G
VL: B6 VL with Q2A, G3V, G51K, S96Y

Numbering of substitutions follows the chain as printed.

The first test has as its target T1, mouse AQP3 in lysate of HEK293T cells overexpressing mouse AQP3 and a myc-biotinylated tag (mouse, UniProt Q8R2N1 1-292).
T1 construct: Cell lysate used in ELISA; also called AQP3 containing cell lysate; not shown: myc-biotinylated tag
T1 sequence (looked up): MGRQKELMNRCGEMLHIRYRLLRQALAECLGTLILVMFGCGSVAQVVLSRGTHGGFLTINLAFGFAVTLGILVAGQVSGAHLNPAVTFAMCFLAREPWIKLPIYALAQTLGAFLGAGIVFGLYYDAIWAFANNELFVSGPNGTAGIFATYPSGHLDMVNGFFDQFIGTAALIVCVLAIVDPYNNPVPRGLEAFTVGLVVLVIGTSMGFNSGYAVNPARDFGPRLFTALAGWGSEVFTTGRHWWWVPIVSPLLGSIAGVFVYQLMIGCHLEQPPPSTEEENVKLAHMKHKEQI
The experiment in a line: ELISA on lysate of HEK293T cells overexpressing mouse AQP3 (FIG. 3). From the text: Cell lysate from HEK293T cells overexpressing mouse AQP3 and a myc-biotinylated tag was used in an ELISA assay to measure the binding of antibodies A, B, C, D, E, F, G, H, J, and K to AQP3. Cell lysate from HEK293T cells overexpressing the myc-biotinylated tag but not AQP3 was used as control. […] C. Antibody binding to AQP3 expressing cells
A general note: ELISA stands for enzyme-linked immunosorbent assay.
Regarding B1, the binding result was “binds”. The same measure, in the same setting: then B2, with “binds”; and B3, with “binds”. With B4, the binding result is recorded as “binds”. As to B5, the binding result is on record as “binds”.

The target in a further test is T2, mouse aquaporin 3 (AQP3) on cells (mouse, UniProt Q8R2N1 1-292).
T2 construct: whole, on cells; Water channel membrane protein; also called mouse AQP3; AQP3 on PAM212 cells
T2 sequence (looked up): T1 sequence (looked up)
The experiment in a line: fluorescence binding assay on PAM212 cells, 10 µg/mL (FIG. 5B). The protocol: PAM212 and macrophage cells were reacted with each anti AQP3 antibody (0.1, 1, or 10 μg/mL) at 4° C. for 1 hour. After washing the cells, a fluorescent-labeled secondary antibody was added and the reaction was allowed to occur additionally for 1 hour (4° C.). By measuring the fluorescence intensity, the binding property of each anti AQP3 antibody to cells was obtained.
The assay was also performed using PAM212 cells and antibodies A, B, C, D, E, F, G, H, and J at a concentration of 10 μg/mL. Binding of antibodies C, D, E, G, and J to PAM212 cells was statistically significant.
As for B2, the binding result is recorded as “binds”.

For a further test, the target named is T3, oligopeptide ATYPSGHLDM (SEQ ID NO: 1) (human and mouse).
T3 construct: Synthetic peptide; positions 148 to 157 of the human AQP3 polypeptide, identical in mouse; also called peptide used for immunization; oligopeptide 5
T3 peptide: ATYPSGHLDM
The experiment in a line: ELISA on the immunogen peptide (FIG. 2).
With B4, the binding result is listed as “binds”. On the same count and under the same terms, then B5, with “binds”.

The target in the next test is T3, oligopeptide ATYPSGHLDM (SEQ ID NO: 1). As to the kind of experiment: ELISA on peptide, Fab.
On to B6, for which the binding result is recorded as “binds”. As for B7, the binding result was “binds”. Still for that read-out and setting: then B8, with “binds”; and B9, with “binds”; and B10, with “binds”. As for B11, the binding result was “binds”. As for B12, the binding result is recorded as “binds”. On the same count and under the same terms, the entry for B13 is “binds”; for B14 it is “binds”. Turning to B15, the binding result is “binds”. The same measure, in the same setting: the entry for B16 is “binds”. As to B17, the binding result was “binds”. Turning to B18, the binding result is reported as “binds”. Take B19: the binding result was “binds”. B20: the binding result was “binds”. Take B21: the binding result is “binds”. Turning to B22, the binding result is on record as “binds”. On the same count and under the same terms, then B23, with “binds”; and B24, with “binds”.

Regarding B25, the binding result is on record as “binds”. As to B26, the binding result is on record as “binds”.

The target in a further test is T4, human aquaporin 3 (AQP3) on cells (human, UniProt Q92482 1-292).
T4 construct: whole, on cells; Water channel membrane protein; also called human AQP3; AQP3 on HaCaT cells
T4 sequence (looked up): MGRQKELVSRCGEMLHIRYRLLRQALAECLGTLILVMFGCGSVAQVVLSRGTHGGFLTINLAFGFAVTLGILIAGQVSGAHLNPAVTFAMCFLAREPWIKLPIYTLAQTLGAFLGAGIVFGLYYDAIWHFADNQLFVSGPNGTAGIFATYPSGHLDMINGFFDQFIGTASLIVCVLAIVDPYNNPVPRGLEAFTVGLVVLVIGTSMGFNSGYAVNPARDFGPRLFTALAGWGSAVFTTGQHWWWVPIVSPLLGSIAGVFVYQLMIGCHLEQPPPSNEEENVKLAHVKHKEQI
As to the kind of experiment: fluorescence binding assay on HaCaT cells, 10 µg/mL (FIG. 5C).
For B2, the binding result is listed as “binds”.

Values taken from patent US20220298237A1 (KEIO UNIVERSITY, published 2022).
